T1: recombinant human VEGF-A145 (human, UniProt P15692-6 27-171)
T1 sequence (looked up): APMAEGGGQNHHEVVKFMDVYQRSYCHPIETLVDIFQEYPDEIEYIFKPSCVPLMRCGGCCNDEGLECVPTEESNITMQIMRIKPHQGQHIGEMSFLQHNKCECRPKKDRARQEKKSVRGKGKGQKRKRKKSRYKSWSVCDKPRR

T2: recombinant laminin α3 2928-3150 protein (linker domain and LG4 domain) (human, UniProt Q16787 2928-3150)
T2 construct: range 2928-3150; Made in HEK-293F cells; also called laminin alpha 3 LG domain recombinant protein
T2 sequence: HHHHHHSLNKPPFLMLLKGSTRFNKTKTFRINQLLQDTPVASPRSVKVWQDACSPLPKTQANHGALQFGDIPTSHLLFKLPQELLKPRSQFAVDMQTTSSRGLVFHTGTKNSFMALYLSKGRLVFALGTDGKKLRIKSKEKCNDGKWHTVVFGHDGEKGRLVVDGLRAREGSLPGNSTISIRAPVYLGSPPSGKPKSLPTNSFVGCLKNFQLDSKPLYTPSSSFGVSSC

B1: Arg substituted HBD (peptide)
peptide: YIGLKDSKSPSELSSIASQVKYAC
notes: not in the list MOLECULES; also called vWF A1 HBD with Arg substituted by Ser; mutated HBD peptide
B2: vascular endothelial growth factor (VEGF)-A121 (ligand, human, UniProt P15692-9 27-147, looked up)
chain: APMAEGGGQNHHEVVKFMDVYQRSYCHPIETLVDIFQEYPDEIEYIFKPSCVPLMRCGGCCNDEGLECVPTEESNITMQIMRIKPHQGQHIGEMSFLQHNKCECRPKKDRARQEKCDKPRR
notes: mature; Purchased in mature form, not glycosylated

Test [1] concerns the target T3, vascular endothelial growth factor (VEGF)-A165 (human, UniProt P15692-4 27-191).
T3 construct: mature; Purchased in mature form, not glycosylated
The test can be described thus: ELISA; peptides and vWF forms coated at 50 nM, VEGF-A in solution, detected with anti-VEGF-A antibody [panel B]. The method, then:
(§1) (A) Diagram of exon sequence of VEGF-A showing inclusion (+) or exclusion (−) of heparin binding domain exons for the different VEGF-A isoforms. […] Bound VEGF-A was detected using a specific antibody for VEGF-A (n=4, mean±SD). Statistical comparisons were done using ANOVA with Tukey's test compared with BSA control. **p<0.01.
(§2) ELISA was performed as previously reported1. […] After blocking with 2% BSA solution containing PBS-T, 1 μg/mL of recombinant human VEGF-A121 (PeproTech), recombinant human VEGF-A145 (R & D Systems), or recombinant human VEGF-A165 (PeproTech) was added. Bound VEGF-A was detected with 1 μg/mL of mouse anti-human VEGF-A antibody (clone: 26503, R & D systems). After 60 min of incubation, horseradish peroxidase (HRP) conjugated goat anti-mouse antibody (1:2000 dilution, Dako) was added and incubated for another 60 min. Color development and the absorbance measurement were done as described above.
Background: ELISA stands for enzyme-linked immunosorbent assay.

Test [2] addresses T1, recombinant human VEGF-A145. The test can be described thus: ELISA; peptides and vWF forms coated at 50 nM, VEGF-A in solution, detected with anti-VEGF-A antibody [panel C]. The method, then:
as §1, §2

The target of test [3] is B2. Description: ELISA; peptides and vWF forms coated at 50 nM, VEGF-A in solution, detected with anti-VEGF-A antibody [panel D]. The procedure:
as §1, §2

Test [4] concerns the target T4, recombinant human vWF A1 domain (human, UniProt P04275 1261-1468, limits assumed).
T4 construct: domain: A1; also called vWF A1 recombinant protein; recombinant A1 domain
The test can be described thus: ELISA; recombinant vWF A1 domain coated (10 µg/mL, legend paragraph 67), GF in solution, detected with anti-VEGF-A antibody [panel B]. The procedure:
FIGS. 18A-C. […] Bound GFs were detected using a specific antibody for each GF (n=4, mean±SD). Statistical analyses were done using ANOVA with Tukey's test or Student's t-test. *p<0.05, **p<0.01.
ELISA tests were performed as described above. […] After blocking with 2% BSA solution containing PBS-T, 1 μg/mL of the recombinant human proteins VEGF-A121, VEGF-A165, PlGF-1, PlGF-2, PDGF-BB, FGF-2, CXCL-12α and CXCL-12γ were added. 1 μg/mL of BSA served as non-binding protein control. Bound GF or chemokine was detected with biotinylated antibodies for human VEGF-A, PlGF, PDGF-BB, FGF-2, or CXCL-12 (R & D Systems). The antibodies were detected by streptavidin-HRP (R & D Systems). Color development and the absorbance measurement were done as described above.

In test [5] the target is T5, pro-peptide containing recombinant vWF (UniProt P04275 23-2813).
T5 construct: also called immature, pro-peptide-containing recombinant vWF
The test can be described thus: ELISA; peptides and vWF forms coated at 50 nM, VEGF-A in solution, detected with anti-VEGF-A antibody [panel D]. The method, then: as §1, §2

The target in test [6] is T6, recombinant human vWF A2 domain (human, UniProt P04275 1498-1665).
T6 construct: domain: A2
The description is as above. The method, then:
as §1, §2

Test [7] has as its target T7, recombinant human vWF A3 domain (human, UniProt P04275 1683-1874).
T7 construct: domain: A3
Described as above. The procedure: as §1, §2

The next test has as its target T8, laminin-211 (human, UniProt P24043 23-3122; P07942 22-1786; P11047 34-1609).
T8 construct: Full-length recombinant human laminin isoform (BioLamina); chains read from the isoform name
The test can be described thus: ELISA, GF coated, laminin 10 nM.

A further test concerns the target T9, laminin-521 (human, UniProt O15230 36-3695; P55268 33-1798; P11047 34-1609).
T9 construct: Full-length recombinant human laminin isoform (BioLamina); chains read from the isoform name
Description: ELISA, GF coated, laminin 10 nM.

For another test, the target named is T10, laminin-111 (human, UniProt P25391 18-3075; P07942 22-1786; P11047 34-1609).
T10 construct: Full-length recombinant human laminin isoform (BioLamina); Chain composition is read from the isoform name
The test can be described thus: ELISA, GF coated, laminin 10 nM.

Another test addresses T11, laminin-421 (human, UniProt Q16363 25-1823; P55268 33-1798; P11047 34-1609).
T11 construct: Full-length recombinant human laminin isoform (BioLamina); chains read from the isoform name
The test can be described thus: ELISA, GF coated, laminin 10 nM.

The target in the next test is T12, laminin-332 (human, UniProt Q16787 28-1724; Q13751 18-1172; Q13753 22-1193, limits assumed).
T12 construct: Full-length recombinant human laminin isoform (BioLamina); chains read from the isoform name
T12 sequence (Q16787 other isoform, or with tags, fused parts or gaps limits assumed, chain 1 of 3): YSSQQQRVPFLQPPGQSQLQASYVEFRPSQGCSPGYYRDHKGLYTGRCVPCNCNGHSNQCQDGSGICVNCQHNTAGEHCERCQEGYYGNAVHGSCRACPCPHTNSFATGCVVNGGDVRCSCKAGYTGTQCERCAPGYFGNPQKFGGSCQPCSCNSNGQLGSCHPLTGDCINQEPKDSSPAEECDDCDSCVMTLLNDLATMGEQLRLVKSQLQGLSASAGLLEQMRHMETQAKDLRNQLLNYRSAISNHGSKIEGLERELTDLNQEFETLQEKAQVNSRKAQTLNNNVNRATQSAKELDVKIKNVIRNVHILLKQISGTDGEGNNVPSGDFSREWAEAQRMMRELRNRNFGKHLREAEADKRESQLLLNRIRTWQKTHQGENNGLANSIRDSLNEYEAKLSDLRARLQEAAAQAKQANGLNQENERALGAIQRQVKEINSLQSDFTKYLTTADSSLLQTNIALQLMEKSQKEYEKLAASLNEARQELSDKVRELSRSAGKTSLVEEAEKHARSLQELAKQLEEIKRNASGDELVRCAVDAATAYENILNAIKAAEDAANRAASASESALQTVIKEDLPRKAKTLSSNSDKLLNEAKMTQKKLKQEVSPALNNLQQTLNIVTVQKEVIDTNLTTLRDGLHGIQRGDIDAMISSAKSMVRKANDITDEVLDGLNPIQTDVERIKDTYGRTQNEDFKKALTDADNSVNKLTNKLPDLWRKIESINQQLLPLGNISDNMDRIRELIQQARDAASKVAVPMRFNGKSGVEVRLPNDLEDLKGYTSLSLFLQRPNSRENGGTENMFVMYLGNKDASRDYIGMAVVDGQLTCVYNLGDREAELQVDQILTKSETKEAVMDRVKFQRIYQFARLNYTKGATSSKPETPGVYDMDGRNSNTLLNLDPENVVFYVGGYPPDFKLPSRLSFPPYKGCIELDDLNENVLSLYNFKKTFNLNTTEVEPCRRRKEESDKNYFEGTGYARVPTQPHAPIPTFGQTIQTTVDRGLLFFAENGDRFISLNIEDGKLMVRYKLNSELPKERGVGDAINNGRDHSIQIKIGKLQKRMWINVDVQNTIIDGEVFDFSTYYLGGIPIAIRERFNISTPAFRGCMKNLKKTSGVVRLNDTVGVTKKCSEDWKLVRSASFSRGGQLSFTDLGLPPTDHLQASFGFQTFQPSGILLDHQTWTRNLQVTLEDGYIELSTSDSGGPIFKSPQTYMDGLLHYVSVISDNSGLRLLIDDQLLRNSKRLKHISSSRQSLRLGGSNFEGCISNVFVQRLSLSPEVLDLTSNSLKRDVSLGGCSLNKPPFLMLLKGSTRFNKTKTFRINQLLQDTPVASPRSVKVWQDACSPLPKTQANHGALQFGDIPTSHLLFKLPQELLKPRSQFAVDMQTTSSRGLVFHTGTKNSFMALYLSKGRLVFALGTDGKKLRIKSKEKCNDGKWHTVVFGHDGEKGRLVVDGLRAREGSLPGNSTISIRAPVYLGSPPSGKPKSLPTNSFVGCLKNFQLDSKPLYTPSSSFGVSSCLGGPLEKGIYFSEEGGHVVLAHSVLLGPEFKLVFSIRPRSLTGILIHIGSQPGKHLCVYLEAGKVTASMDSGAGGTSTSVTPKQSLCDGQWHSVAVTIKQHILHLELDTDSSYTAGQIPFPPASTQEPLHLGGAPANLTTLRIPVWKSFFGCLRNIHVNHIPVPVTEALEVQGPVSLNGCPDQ
T12 sequence (Q13751 18-1172 limits assumed, chain 2 of 3): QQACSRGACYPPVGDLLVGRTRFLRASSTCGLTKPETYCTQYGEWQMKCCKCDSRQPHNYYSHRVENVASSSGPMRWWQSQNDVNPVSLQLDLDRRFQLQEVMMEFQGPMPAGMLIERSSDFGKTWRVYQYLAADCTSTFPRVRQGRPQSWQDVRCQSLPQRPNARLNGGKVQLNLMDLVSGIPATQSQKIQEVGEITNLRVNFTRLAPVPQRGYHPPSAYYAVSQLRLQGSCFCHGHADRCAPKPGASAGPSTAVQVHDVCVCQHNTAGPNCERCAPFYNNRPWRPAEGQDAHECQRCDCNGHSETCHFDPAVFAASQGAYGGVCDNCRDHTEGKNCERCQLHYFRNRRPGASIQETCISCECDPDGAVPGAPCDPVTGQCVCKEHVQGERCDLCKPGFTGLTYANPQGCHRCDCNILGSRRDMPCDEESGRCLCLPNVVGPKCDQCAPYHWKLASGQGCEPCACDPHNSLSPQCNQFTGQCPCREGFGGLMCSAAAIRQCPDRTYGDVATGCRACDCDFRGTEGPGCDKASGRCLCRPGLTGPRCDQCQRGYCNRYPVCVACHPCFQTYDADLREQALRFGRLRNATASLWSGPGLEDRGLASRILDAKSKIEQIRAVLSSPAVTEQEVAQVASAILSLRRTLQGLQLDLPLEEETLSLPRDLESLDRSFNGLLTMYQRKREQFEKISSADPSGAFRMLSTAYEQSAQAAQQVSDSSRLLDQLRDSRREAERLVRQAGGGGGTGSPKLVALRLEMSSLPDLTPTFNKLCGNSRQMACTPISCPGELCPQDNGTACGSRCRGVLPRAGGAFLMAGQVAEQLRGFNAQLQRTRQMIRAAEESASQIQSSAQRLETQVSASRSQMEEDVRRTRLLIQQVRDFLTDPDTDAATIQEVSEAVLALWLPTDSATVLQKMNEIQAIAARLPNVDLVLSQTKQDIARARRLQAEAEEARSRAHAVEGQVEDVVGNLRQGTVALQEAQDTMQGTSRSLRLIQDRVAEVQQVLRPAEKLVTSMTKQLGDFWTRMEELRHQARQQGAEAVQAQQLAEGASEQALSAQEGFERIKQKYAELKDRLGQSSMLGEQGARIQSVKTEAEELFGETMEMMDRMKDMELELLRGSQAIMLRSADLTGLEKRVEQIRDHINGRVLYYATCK
T12 sequence (Q13753 22-1193 limits assumed, chain 3 of 3): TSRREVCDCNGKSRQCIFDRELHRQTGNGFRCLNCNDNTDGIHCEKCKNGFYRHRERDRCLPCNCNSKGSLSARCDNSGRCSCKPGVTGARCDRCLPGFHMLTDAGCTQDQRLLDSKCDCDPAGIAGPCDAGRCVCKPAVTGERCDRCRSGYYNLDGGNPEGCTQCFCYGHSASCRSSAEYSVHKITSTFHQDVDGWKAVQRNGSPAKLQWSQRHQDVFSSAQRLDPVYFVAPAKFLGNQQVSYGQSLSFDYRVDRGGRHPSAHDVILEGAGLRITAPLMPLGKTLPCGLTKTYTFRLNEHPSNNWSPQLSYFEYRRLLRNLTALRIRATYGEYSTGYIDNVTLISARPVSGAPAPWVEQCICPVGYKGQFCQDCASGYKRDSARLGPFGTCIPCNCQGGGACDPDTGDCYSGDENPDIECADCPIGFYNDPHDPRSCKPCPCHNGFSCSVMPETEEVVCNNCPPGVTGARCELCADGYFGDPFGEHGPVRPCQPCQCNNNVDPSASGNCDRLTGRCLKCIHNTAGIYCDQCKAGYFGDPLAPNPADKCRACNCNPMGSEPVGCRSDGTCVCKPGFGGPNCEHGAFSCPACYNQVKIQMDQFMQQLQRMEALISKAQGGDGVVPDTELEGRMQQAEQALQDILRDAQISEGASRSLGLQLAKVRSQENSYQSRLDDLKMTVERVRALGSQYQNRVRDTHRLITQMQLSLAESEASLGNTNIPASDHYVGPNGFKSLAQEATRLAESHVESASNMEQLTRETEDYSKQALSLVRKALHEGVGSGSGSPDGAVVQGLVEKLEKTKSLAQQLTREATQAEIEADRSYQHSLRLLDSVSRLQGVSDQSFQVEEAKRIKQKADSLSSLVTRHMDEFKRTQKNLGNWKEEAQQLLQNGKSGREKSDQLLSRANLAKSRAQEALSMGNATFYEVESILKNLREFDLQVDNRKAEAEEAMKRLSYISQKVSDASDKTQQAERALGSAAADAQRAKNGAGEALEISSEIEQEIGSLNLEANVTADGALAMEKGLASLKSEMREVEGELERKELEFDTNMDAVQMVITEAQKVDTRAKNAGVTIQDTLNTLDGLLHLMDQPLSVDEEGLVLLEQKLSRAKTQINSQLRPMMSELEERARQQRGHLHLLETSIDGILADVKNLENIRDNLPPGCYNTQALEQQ
Description: ELISA, GF coated, laminin 10 nM.

Another test deals with T13, laminin-511 (human, UniProt O15230 36-3695; P07942 22-1786; P11047 34-1609).
T13 construct: Full-length recombinant human laminin isoform (BioLamina); chains read from the isoform name
Description: ELISA, GF coated, laminin 10 nM.

The target of the next test is T14, laminin-411 (human, UniProt Q16363 25-1823; P07942 22-1786; P11047 34-1609).
T14 construct: Full-length recombinant human laminin isoform (BioLamina); chains read from the isoform name
Description: ELISA, GF coated, laminin 10 nM.

The target in a further test is T15, human plasma-derived vWF (human, UniProt P04275 764-2813).
T15 construct: mature; also called plasma-derived purified vWF; von Willebrand factor
The test can be described thus: ELISA, GF coated 50 nM, vWF 1 µg/mL.

Test [8] deals with T2, recombinant laminin α3 2928-3150 …. The test can be described thus: ELISA, LG domain protein coated. The method, then:
Affinity of GFs against recombinant laminin LG domains. ELISA plates were coated with 1 μg/mL (A) α3₂₉₂₈₋₃₁₅₀, (B) α4₈₂₆₋₁₈₁₆, or (C) α5₃₀₂₆₋₃₄₈₂ and further incubated with 1 μg/mL of VEGF-A165, VEGF-A121, PlGF-2, PlGF-1, PDGF-BB, or FGF-2 solution. Bound GFs were detected using a specific antibody for each GF (n=4, mean±SEM). Statistical analyses were done using the Mann-Whitney U test by comparing the signals obtained from the laminin domain- and the BSA-coated wells. *p<0.05, **p<0.01. […] A SPR chip was functionalized with the laminin α3₂₉₂₈₋₃₁₅₀ recombinant protein (˜1000 RU), and each GF was flowed over the chip at indicated concentrations. Curves represent the specific responses (in RU) to laminin. Experimental curves were fitted with Langmuir binding kinetics.
ELISA tests were performed as described above. […] 1 μg/mL of BSA served as non-binding protein control. After blocking with 2% BSA PBS-0.05% Tween 20 (PBS-T) solution, 1 μg/mL of the recombinant human proteins (VEGF-A121, VEGF-A165, PlGF-1, PlGF-2, PDGF-BB or FGF-2) or 10 μg/mL of biotinylated heparin (Sigma-Aldrich) were added. Bound GF was detected with biotinylated antibodies for human VEGF, PlGF, PDGF-BB, or FGF-2 (R&D Systems). The antibodies were detected by streptavidin-HRP (R&D Systems).

From US20240092867A1 (UNIVERSITY OF CHICAGO, published 2024) come the findings set out here.

On to B1, for which the binding result is listed as “no binding (tested: 1 µg/mL VEGF-A165 (single concentration))” in test [1], “no binding (tested: 1 µg/mL VEGF-A145 (single concentration))” in test [2] and “no binding (tested: 1 µg/mL VEGF-A121 (single concentration))” in test [3].

Regarding B2, the binding result in [4] is given as “no binding (tested: 1 µg/mL VEGF-A121 (single concentration))”; in [5], “no binding (tested: 1 µg/mL VEGF-A121 (single concentration))”; in test [6], “no binding (tested: 1 µg/mL VEGF-A121 (single concentration))”; in test [7] it was “no binding (tested: 1 µg/mL VEGF-A121 (single concentration))”; in the test with laminin-211 it was “no binding (tested: A450 0.1)”; with laminin-521 it was “no binding (tested: A450 0.1)”. The binding result is listed as “no binding (tested: A450 0.1)” with laminin-111; “no binding (tested: A450 0.1)” with laminin-421; “no binding (tested: A450 0.1)” in the test with laminin-332; “no binding (tested: A450 0.1)” with laminin-511; “no binding (tested: A450 0.1)” with laminin-411; “no binding” in the test with human plasma-derived vWF. Moreover, in test [8], the binding result is on record as “no binding (tested: 1 µg/mL)”.
